Results on one substance are retold here after US20240140995A1.

Experiment [1] deals with GthCol (Geobacillus thermoglucosidasius C-terminal Colicin DNase domain, C36A, H78A, engineered) (Geobacillus thermoglucosidasius). The experiment is described as follows: SPR Biacore T200, 37 C, single cycle kinetics.
Experiment [2] concerns the target E. coli ColE-7 (E. coli) (UniProt Q47112). The experiment is described as follows: SPR Biacore T200, 37 C, single cycle kinetics. (Surface plasmon resonance follows binding to a sensor surface in real time, without labels.)
The target in experiment [3] is GthCol (Geobacillus thermoglucosidasius C-terminal Colicin DNase domain, C36A, H78A, engineered) (Geobacillus thermoglucosidasius). The experiment is described as follows: SPR Biacore T200, 37 C, single cycle kinetics; […].
Experiment [4] addresses E. coli ColE-7 (E. coli) (UniProt Q47112). The experiment is described as follows: SPR Biacore T200, 37 C, single cycle kinetics; biotinylated immunity protein on streptavidin sensor, colicin analyte 1.1-90 nM.

As a reminder, the Kd is the equilibrium constant for the complex coming apart. For orientation: koff means a measure of how fast the partners let go of each other. Low values mean a long-lived complex, high ones a short-lived complex. By kon is commonly meant the second-order rate constant of association. Consider “GthIM (Geobacillus thermoglucosidasius immunity protein, C18A, engineered), singly biotinylated”, for which, in experiment [1], the fold stronger than the IM7/ColE7 interaction was more than 30 fold. Also, in the experiment with E. coli ColE-7 (E. coli) [2], the complex half-life t/2-diss is less than 1 min and the fold less affinity than GthIM/GthCol worked out at 65000 fold. In addition, in experiment [3], the GthCol concentration at which GthIM saturation is achieved was determined as 3 nM; the Kd is less than 0.2 pM; the MR (Molar Ratio, binding stoichiometry) stood at 1.1; the dissociation rate constant (koff) is less than 1e-05 s⁻¹. In experiment [3], this substance displayed an on-rate constant (kon) of more than 5e+07 M⁻¹ s⁻¹. Moreover, the MR (Molar Ratio, binding stoichiometry) in the experiment with E. coli ColE-7 (E. coli) [4] turned out to be 1.2.
